Legend:
[1] = system: ZFN-Rab38-L (artificial); assay: cell_activity; settings: with ZFN-Rab38-R; 3 of 52 mice from mRNA-injected zygotes with Rab38-cht vector, no NHEJ inhibition
[2] = system: ZFN-Rab38-R (artificial); assay: cell_activity; settings: with ZFN-Rab38-L; 3 of 52 mice from mRNA-injected zygotes with Rab38-cht vector, no NHEJ inhibition

Row | Sequence | activity (% targeted mice) [1] | activity (% targeted mice) [2]
1 | ATGCAGACACCTCACAAGGAGCACCTGTACAAGCTGCTGGTGATCGGCGACCTGGGTGTGGGCAAGACCAGCATTATCAAGCGCTATGTGCACCAAAACTTCTCCTCGCACTACCGGGCCACCATTGGTGTGGACTTCGCGCTGAAGGTGCTCCACTGGGACCCAGAGACGGTGGTGCGCTTGCAGCTCTGGGACATTGCTG (double strand) [Rab38 exon 1 ZFN-L half-site] | 5 | –
2 | ATGCAGACACCTCACAAGGAGCACCTGTACAAGCTGCTGGTGATCGGCGACCTGGGTGTGGGCAAGACCAGCATTATCAAGCGCTATGTGCACCAAAACTTCTCCTCGCACTACCGGGCCACCATTGGTGTGGACTTCGCGCTGAAGGTGCTCCACTGGGACCCAGAGACGGTGGTGCGCTTGCAGCTCTGGGACATTGCTG (double strand) [Rab38 exon 1 ZFN-R half-site] | – | 5

Reference: patent publication US20140304847
